Experimental data from patent US5882644A, “Monoclonal antibodies specific for the platelet derived growth factor β receptor and methods of use thereof” (Protein Design Labs, Inc., priority 1996, dated 1999).

Tests used:
PDGF-R β = test: Competition with 125I-labeled murine antibody tracer on Sp2/0 PDGF-R β transfectant cells; assay type: binding, human; conditions: calculated from competitive binding data; Sp2/0 PDGF-R β transfectants
Protocol: To assess the ability of HuM4TS.22 to compete with muM4TS.22 for receptor binding, increasing concentrations of the two antibodies were respectively incubated on ice for one hour with Sp2/0 PDGF-R β transfectant cells and a fixed amount of tracer ^125 I-labeled muAb. The sample tubes were processed as in the blocking experiment just described.
To assess the ability of HuM4TS.11 to compete with the muAb for receptor binding, increasing concentrations of the two antibodies were respectively incubated on ice for one hour with Sp2/0 PDGF-R β transfectant cells and a fixed amount of tracer ^125 I-labeled M4TS.11. The sample tubes were processed as in the blocking experiment described. […] The binding affinities calculated from the data were: Ka =5×10^8 M^-1 for the muAb and 3×10^7 M^-1 for the HuAb.

[1] = system: PDGF-R β expressed on the cell membrane; test: Flow cytometry binding to CHO PDGF-R β transfectant cells; design: species or system human; conditions: 0.1-1 μg/ml antibody; CHO PDGF-R β transfectants vs untransfected CHO
Protocol: The cells were washed once in cold PBS and resuspended in 50 μl of PBS containing 10 μg/ml FITC-conjugated goat anti-mouse IgG and incubated for 30 min. After another wash, the cells were fixed by resuspension in 0.25 ml of paraformaldehyde in PBS, and analyzed for fluorescence by flow cytometry on a FACScan (Becton Dickinson).

[2] = system: intima of left common carotid artery after balloon injury; test: Rat carotid balloon injury model, intimal thickening; assay type: in vivo; conditions: 21 days after injury
Text: To perform the vascular injury, under sterile conditions and after general anesthesia the left common carotid arteries of S-D rats were exposed. Anesthesia was induced with ketamine and xilaxine by IP injection. Additional anesthesia was given at half a dose every forty-five minutes. Through a midline neck incision the left common, external and internal carotid arteries were exposed. A 2F Fogarty balloon catheter was introduced in the left external carotid artery. The balloon was inflated sufficiently to generate slight resistance and withdrawn 3 times to consistently produce endothelial denudation of the entire length of the left common carotid artery (LCCA), thus simulating vascular injury after balloon angioplasty in human patients. Upon removal of the catheter, the left external carotid artery was ligated with 3.0 silk. The skin was closed with surgical wound clips. […]
For measurement of intimal thickening, the left common carotid arteries were sectioned every 3 mm, from the proximal to the distal end. […] Cross-sectional areas for lumen, intima and media of the artery were determined as a mean of the 3 segments with the greatest intimal thickness. […] Differences between placebo or control groups and treated groups were analyzed for statistical significance by analysis of variance and a two-tailed, unpaired Student's t test […]

[3] = system: Rat aortic smooth muscle cells (SMC); test: Inhibition of PDGF BB-mediated proliferation of rat aortic smooth muscle cells; assay type: cell-based; conditions: PDGF BB 10 ng/ml, 3H-thymidine 19 to 26 hr
Protocol: To determine whether muM4TS.11 inhibits PDGF-mediated proliferation of rat cells in vitro, the following experiment was performed. Rat aortic smooth muscle cells (SMC) were plated at a 1:3 split ratio in 10% FCS and made quiescent 24 hours later by changing the medium to 1% control process serum replacement II (Sigma, St. Louis, Mo.). Three to five days later, the cells were stimulated with PDGF BB (10 ng/ml). At the time of stimulation, increasing doses of the specific MAb or mouse IgG (control) were added. Cell proliferation was determined by measuring ^3 H-thymidine incorporated into DNA when the cells were pulsed from 19 to 26 hr after stimulation. MuM4TS.11 inhibited proliferation in a concentration-dependent manner with an IC50 of about 0.5 μg/ml.

[4] = system: human primary fibroblast cell line AG1523B; test: Inhibition of PDGF BB-stimulated proliferation of AG1523B fibroblasts; assay type: cell-based; conditions: 300 ng/ml PDGF BB

B1: muM4TS.11: murine monoclonal antibody to PDGF-R β, variable regions SEQ ID NOS:10 and 12; epitope in fourth extracellular domain (antibody, V domains shown)
VL: METETLLLWVLLLWVPGSTGDIVLTQSPPSLAVSLGQRATISCRASESVDSYGNSFMHWYQQKPGQPPKLLIYRASNLESGIPARFSGGGSRTDFTLTINPVEADDVATYYCQQSNEDPPTFGGGTKLEIK
VH: MERHWIFLFLFSVTAGVHSQVQLQQSGAEVAKPGASVKMSCKASGYTFTNCWMHWVKQRPGQGLEWIGYINPTTGYSEYNQNFKDKATLTADKSSNTAYIQLSSLTSEDSAVYYCTSNYGHYDWFANWGQGTLVT
binding affinity Ka (PDGF-R β): 5e+08 M⁻¹
specific binding to membrane PDGF-R β by flow cytometry [1]: specifically bound to CHO PDGF-R β transfectant cells but not to untransfected CHO cells
less thickening of the artery intima than placebo or control groups ([2]; high dose: 4 mg bolus, then 2 mg IV every 24 hr for 4 days): approximately 60%
less thickening of the artery intima than placebo or control groups ([2]; low dose: 10% of the high-dose regimen): approximately 40%
IC50 of inhibition of proliferation [3]: about 0.5 μg/ml
inhibition of stimulation of proliferation by PDGF BB [4]: effectively inhibited the stimulation of proliferation by PDGF BB
